The text below walks through data of paper PMC8881453, “Cryo-EM structure of translesion DNA synthesis polymerase ζ with a base pair mismatch” (Nature Communications, 2022).

The chains are these.
B2: Pol31, accessory subunit of DNA polymerase ζ (Polζ) (natural protein, Saccharomyces cerevisiae, UniProt P46957 1-487, looked up)
chain: MDALLTKFNEDRSLQDENLSQPRTRVRIVDDNLYNKSNPFQLCYKKRDYGSQYYHIYQYRLKTFRERVLKECDKRWDAGFTLNGQLVLKKDKVLDIQGNQPCWCVGSIYCEMKYKPNVLDEVINDTYGAPDLTKSYTDKEGGSDEIMLEDESGRVLLVGDFIRSTPFITGVVVGILGMEAEAGTFQVLDICYPTPLPQNPFPAPIATCPTRGKIALVSGLNLNNTSPDRLLRLEILREFLMGRINNKIDDISLIGRLLICGNSVDFDIKSVNKDELMISLTEFSKFLHNILPSISVDIMPGTNDPSDKSLPQQPFHKSLFDKSLESYFNGSNKEILNLVTNPYEFSYNGVDVLAVSGKNINDICKYVIPSNDNGESENKVEEGESNDFKDDIEHRLDLMECTMKWQNIAPTAPDTLWCYPYTDKDPFVLDKWPHVYIVANQPYFGTRVVEIGGKNIKIISVPEFSSTGMIILLDLETLEAETVKIDI
notes: Pol31, Saccharomyces cerevisiae, accessory subunit of Polζ, full-length (residues 1-487); source: expressed in yeast from plasmids pBJ1462 and pBJ1524, purified as the Polζ holoenzyme
B3: Pol32, accessory subunit of DNA polymerase ζ (Polζ) (natural protein, Saccharomyces cerevisiae, UniProt P47110 1-350, looked up)
chain: MDQKASYFINEKLFTEVKPVLFTDLIHHLKIGPSMAKKLMFDYYKQTTNAKYNCVVICCYKDQTIKIIHDLSNIPQQDSIIDCFIYAFNPMDSFIPYYDIIDQKDCLTIKNSYELKVSESSKIIERTKTLEEKSKPLVRPTARSKTTPEETTGRKSKSKDMGLRSTALLAKMKKDRDDKETSRQNELRKRKEENLQKINKQNPEREAQMKELNNLFVEDDLDTEEVNGGSKPNSPKETDSNDKDKNNDDLEDLLETTAEDSLMDVPKIQQTKPSETEHSKEPKSEEEPSSFIDEDGYIVTKRPATSTPPRKPSPVVKRALSSSKKQETPSSNKRLKKQGTLESFFKRKAK
notes: Pol32, Saccharomyces cerevisiae, accessory subunit of Polζ, full-length (residues 1-350); The full-length protein was in the sample; also called Pol32N; source: expressed in yeast from plasmids pBJ1462 and pBJ1524, purified as the Polζ holoenzyme

Data set [1] concerns the target T1, Polζ holoenzyme (Rev3-Rev7-Pol31-Pol32) (Saccharomyces cerevisiae, UniProt P14284).
T1 construct: full-length subunits, holoenzyme expressed in yeast from plasmids pBJ1462 and pBJ1524; pentameric complex with two Rev7 (Rev7A, Rev7B); with DNA polymerase zeta processivity subunit; DNA polymerase delta small subunit; DNA polymerase delta subunit 3
Kind of data set: cryo-EM structure, […] Å. The data set is classed as binding. To be noted: ternary complex with dideoxy-terminated A:C mismatched primer-template DNA, templating G; 1 mM dCTP; CaCl2 (Ca2+ metal B); Rev3 active site, fingers open.

For the data set “Rev3 (Polζ catalytic …)”, the target named is Rev3 (Polζ catalytic subunit);Rev7;Pol31;Pol32 (Saccharomyces cerevisiae;Saccharomyces …, UniProt P14284;P38927;P46957;P47110 1-1504;1-245;1-487;1-350, |||). Briefly: cryo-EM structure (3.05 Å); 1 mM dCTP, CaCl2; metal ion B; CaCl2-supplemented buffer, DNA in 1.5 molar excess, 1 mM dCTP; salt, pH and temperature not given. Particulars: protein: recombinant;recombinant;recombinant;recombinant; tags: ;;;; copies: 1;2;1;1; self-annealed palindrome, 2 copies of one strand; 5' overhang 5 nt (TAATG, templating G); A6:C30 mismatch at primer terminus; central A:A.

The target in data set [2] is T2, Rev3, catalytic subunit of DNA polymerase ζ (Polζ) (Saccharomyces cerevisiae, UniProt P14284 1-1504).
T2 construct: Rev3, Saccharomyces cerevisiae, catalytic subunit of Polζ, full-length (residues 1-1,504); also called catalytic Rev3; source: expressed in yeast from plasmids pBJ1462 and pBJ1524, purified as the Polζ holoenzyme
Kind of data set: cryo-EM structure; Polζ holoenzyme incubated in a CaCl2 supplemented buffer with palindromic DNA (1.5 molar excess) with an A:C mismatch at the primer terminus, 1 mM dCTP; nominal resolution 3.05 Å. To be noted: both partners purified.

Data set [3] concerns the target B2. Described as above. To be noted: both partners purified.
In data set [4] the target is B3. Described as above. To be noted: both partners purified.

T2 sequence (P14284 whole entry, the tested form may be a part): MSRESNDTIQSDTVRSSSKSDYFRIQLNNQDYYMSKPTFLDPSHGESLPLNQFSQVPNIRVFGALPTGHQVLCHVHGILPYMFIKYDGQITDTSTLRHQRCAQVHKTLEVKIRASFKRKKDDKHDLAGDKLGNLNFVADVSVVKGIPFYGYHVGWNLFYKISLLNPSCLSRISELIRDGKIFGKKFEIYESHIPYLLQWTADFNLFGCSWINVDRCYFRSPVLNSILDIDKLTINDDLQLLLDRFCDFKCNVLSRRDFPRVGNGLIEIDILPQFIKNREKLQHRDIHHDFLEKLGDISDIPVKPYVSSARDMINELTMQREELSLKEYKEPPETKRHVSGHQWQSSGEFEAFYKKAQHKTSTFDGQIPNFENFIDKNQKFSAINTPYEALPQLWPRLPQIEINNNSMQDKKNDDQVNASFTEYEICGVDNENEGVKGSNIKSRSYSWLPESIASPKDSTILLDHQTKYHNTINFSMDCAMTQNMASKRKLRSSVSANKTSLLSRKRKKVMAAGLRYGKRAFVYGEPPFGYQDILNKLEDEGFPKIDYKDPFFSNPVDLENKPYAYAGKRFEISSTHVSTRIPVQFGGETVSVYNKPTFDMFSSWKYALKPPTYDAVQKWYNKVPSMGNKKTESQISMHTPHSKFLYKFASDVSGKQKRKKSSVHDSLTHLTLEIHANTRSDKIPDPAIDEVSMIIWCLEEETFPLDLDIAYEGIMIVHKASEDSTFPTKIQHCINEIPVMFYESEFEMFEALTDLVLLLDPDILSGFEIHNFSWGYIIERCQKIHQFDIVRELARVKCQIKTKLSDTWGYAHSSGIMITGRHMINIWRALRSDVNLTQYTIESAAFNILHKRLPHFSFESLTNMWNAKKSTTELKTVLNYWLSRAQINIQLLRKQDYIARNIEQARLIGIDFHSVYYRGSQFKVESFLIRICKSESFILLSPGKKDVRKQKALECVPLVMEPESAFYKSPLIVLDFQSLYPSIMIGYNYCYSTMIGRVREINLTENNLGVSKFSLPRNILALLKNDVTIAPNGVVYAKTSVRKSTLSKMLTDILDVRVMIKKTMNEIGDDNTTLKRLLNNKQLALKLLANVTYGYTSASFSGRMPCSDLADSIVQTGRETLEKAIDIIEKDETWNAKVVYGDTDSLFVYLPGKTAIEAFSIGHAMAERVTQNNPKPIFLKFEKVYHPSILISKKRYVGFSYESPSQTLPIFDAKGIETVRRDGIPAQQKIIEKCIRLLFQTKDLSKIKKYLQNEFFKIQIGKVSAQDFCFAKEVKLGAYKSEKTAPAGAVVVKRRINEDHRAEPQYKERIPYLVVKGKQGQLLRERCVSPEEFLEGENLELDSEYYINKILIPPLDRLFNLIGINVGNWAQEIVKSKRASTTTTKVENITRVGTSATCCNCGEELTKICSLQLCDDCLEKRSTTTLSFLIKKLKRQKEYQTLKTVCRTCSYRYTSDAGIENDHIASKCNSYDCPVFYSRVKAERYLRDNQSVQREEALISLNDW
T1 sequence (P14284 whole entry, one chain of several): as the sequence (P14284 whole entry, the tested form may be a part) above
Sequence of Rev3 (Polζ catalytic subunit);Rev7;Pol31;Pol32 (P14284 whole entry, one chain of several): as the sequence (P14284 whole entry, the tested form may be a part) above

As for `Nc1ccn([C@H]2C[C@H](O)[C@@H](COP(=O)(O)OP(=O)(O)OP(=O)(O)O)O2)c(=O)n1` [dCTP], the “cryo-EM structure, 3.05 Å” value in data set [1] is listed as “Rev3 is observed with the incoming nucleotide dCTP (position P0) opposite the templating base G”.

B1: A:C mismatched palindromic template-primer (dsDNA)
DNA 1: TAATGATAGGGGAGGGAATCCCTCCCCTAC
DNA 2: TAATGATAGGGGAGGGAATCCCTCCCCTAC
modifications: 3'-dideoxy C terminus
Regarding B1, in the data set with Rev3 (Polζ catalytic …), the binding result is recorded as “binds”.

B2: the binding result in data set [2] is on record as “binds”.

Regarding B3, the binding result in data set [3] is recorded as “binds”.

B4: Rev7, accessory subunit of DNA polymerase ζ (Polζ) (natural protein, Saccharomyces cerevisiae, UniProt P38927 1-245, looked up)
chain: MNRWVEKWLRVYLKCYINLILFYRNVYPPQSFDYTTYQSFNLPQFVPINRHPALIDYIEELILDVLSKLTHVYRFSICIINKKNDLCIEKYVLDFSELQHVDKDDQIITETEVFDEFRSSLNSLIMHLEKLPKVNDDTITFEAVINAIELELGHKLDRNRRVDSLEEKAEIERDSNWVKCQEDENLPDNNGFQPPKIKLTSLVGSDVGPLIIHQFSEKLISGDDKILNGVYSQYEEGESIFGSLF
notes: Rev7, Saccharomyces cerevisiae, accessory subunit of Polζ, full-length (residues 1-245); Two copies (Rev7A and Rev7B) stand in the pentameric holoenzyme; also called Rev7B; source: expressed in yeast from plasmids pBJ1462 and pBJ1524, purified as the Polζ holoenzyme
On to B4, for which the binding result in data set [2] and in data set [4] was “binds” each time.
